These results are taken from patent publication US20070149453A1.

Data set [1] concerns the target T1, p55 TNF Receptor peptide (Dabcyl-N-V-K-G-T-E-D-S-G-Edans).
T1 chain: NVKGTEDSG

Data set [2] deals with T2, p75 TNF Receptor peptide (Dabcyl-C-T-S-T-S-P-T-R-Edans).
T2 chain: CTSTSPTR

Data set [3] has as its target mouse p55 TNF receptor (mouse) (UniProt P25118). Nature of the data set: cell-based or functional assay.
The target of data set [4] is mouse p75 TNF receptor (mouse) (UniProt P25119). Nature of the data set: cell-based or functional assay.
Chain of mouse p75 TNF receptor (mouse) (P25119 23-474 limits assumed): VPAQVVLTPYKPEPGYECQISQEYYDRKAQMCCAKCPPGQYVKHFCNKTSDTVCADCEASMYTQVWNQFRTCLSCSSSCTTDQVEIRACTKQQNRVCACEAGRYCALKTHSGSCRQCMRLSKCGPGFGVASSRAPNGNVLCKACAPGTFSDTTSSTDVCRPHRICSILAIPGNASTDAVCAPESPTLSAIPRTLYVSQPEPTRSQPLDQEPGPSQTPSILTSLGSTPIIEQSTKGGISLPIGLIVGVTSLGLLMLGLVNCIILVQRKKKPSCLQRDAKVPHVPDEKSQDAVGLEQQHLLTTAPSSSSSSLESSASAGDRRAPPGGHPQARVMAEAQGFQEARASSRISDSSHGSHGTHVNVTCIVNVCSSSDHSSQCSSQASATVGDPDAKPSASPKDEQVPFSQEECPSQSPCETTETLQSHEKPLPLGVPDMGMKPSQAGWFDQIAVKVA
For data set [5], the target named is T3, IL-6 Receptor peptide (Dabcyl-A-N-A-T-S-L-P-Edans).
T3 chain: ANATSLP

For data set [6], the target named is T4, IL-1 Type II Receptor peptide (Dabcyl-Q-T-K-R-T-T-V-K-E-A-Edans).
T4 chain: QTKRTTVKEA

Data set [7] has as its target T5, IL-1 Type I Receptor peptide (Dabcyl-T-H-G-I-D-A-A-Y-I-Q-Edans).
T5 chain: THGIDAAYIQ

Chain of mouse p55 TNF receptor (mouse) (P25118 30-454 limits assumed): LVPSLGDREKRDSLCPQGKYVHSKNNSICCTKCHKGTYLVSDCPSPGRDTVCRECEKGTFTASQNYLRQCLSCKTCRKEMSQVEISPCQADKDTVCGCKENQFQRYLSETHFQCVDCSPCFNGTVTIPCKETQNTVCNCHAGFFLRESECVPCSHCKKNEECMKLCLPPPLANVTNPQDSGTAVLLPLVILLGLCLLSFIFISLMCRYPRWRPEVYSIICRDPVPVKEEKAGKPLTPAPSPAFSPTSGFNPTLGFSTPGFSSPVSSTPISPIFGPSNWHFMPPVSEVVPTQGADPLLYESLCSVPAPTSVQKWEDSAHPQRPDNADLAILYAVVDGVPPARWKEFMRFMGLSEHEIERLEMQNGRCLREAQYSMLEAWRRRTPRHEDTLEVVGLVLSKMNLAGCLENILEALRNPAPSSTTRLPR

B1: MP8-FL2 (full length MP8 without His tag, from E. coli strain MP820) (protein)
chain: MCVHPGACLPHVGVSWAEFPGHFSVELSSLLVRNVNYEIPSLKKQIAKCQQLQQEYSRKEEECQAGAAEMREQFYHSCKQYGITGENVRGELLALVKDLPSQLAEIGAAAQQSLGEAIDVYQASVGFVCESPTEQVLPMLRFVQKRGNSTVYEWRTGTEPSVVERPHLEELPEQVAEDAIDWGDFGVEAVSEGTDSGISAEAAGIDWGIFPESDSKDPGGDGIDWGDDAVALQITVLEAGTQAPEGVARGPDALTLLEYTETRNQFLDELMELEIFLAQRAVELSEEADVLSVSQFQLAPAILQGQTKEKMVTMVSVLEDLIGKLTSLQLQHLFMILASPRYVDRVTEFLQQKLKQSQLLALKKELMVQKQQEALEEQAALEPKLDLLLEKTKELQKLIEADISKRYSGRPVNLMGTSL
For the molecule B1, the “peptide cleavage (FRET assay)” value is “The same preparation of MP8-FL2 caused cleavage of both R1 (Dabcyl-N-V-K-G-T-E-D-S-G-Edans; SEQ. ID NO:71) and R2” in data set [1]; “The same preparation of MP8-FL2 caused cleavage of both R1 ... and R2 (Dabcyl-C-T-S-T-S-P-T-R-Edans; SEQ. ID NO:73)” in data set [2].

B2: MP8 (original clone, core MP8, N-terminal His tag and thrombin site) (protein)
chain: WIQRIRHEGNSTVYEWRTGTEPSVVERPHLEELPEQVAEDAIDWGDFGVEAVSEGTDSGISAEAAGIDWGIFPESDSKDPGGDGIDWGDDAVALQITVLEAGTQAPEGVARGPDALTLLEYTETRNQFLDELMELEIFLAQRAVELSEEADVLSVSQFQLAPAILQGQTKEKMVTMVSVLEDLIGKLTSLQLQHLFMILASPRYVDRVTEFLQQKLKQSQLLALKKELMVQKQQEALEEQAALEPKLDLLLEKTKELQKLIEADISKRYSGRPVNLMGTSL
Turning to B2, the circulating TNF receptor in serum of Balb/c mice after s.c. MP8 (ELISA) in data set [3] and in data set [4] was 100 fold each time. Also, the “peptide cleavage (FRET assay, Zn++/Ca++ dependent)” value in data set [1] is “MP8 cleaves the peptides from both the p55 and p75 TNF receptors (TNF-R1 and TNF-R2)”; in data set [5], “MP8 also cleaves the IL-6 receptor peptide with high activity”; in data set [2], “MP8 cleaves the peptides from both the p55 and p75 TNF receptors (TNF-R1 and TNF-R2)”. The “relative peptide cleavage activity (FRET assay)” value is “Clone MP8 shows specificity for several receptors involved in the inflammatory pathway (TNF-R p55 and p75 isoforms, IL-6 receptor and IL-1 receptors) in comparison with control substrates” in data set [6]; “Clone MP8 shows specificity for several receptors involved in the inflammatory pathway (TNF-R p55 and p75 isoforms, IL-6 receptor and IL-1 receptors) in comparison with control substrates” in data set [7].
